US20090306338A1 (TRUSTEES OF TUFTS COLLEGE, published 2009)
Square brackets hold non-standard residues; d marks the D form. Ends that are not written are not given here. Asp(3,3-Me2) = CC(C)(C(=O)O)[C@H](N)C(=O)O

Key:
[1] = molecular target: human GLP-1 receptor (human) (UniProt P43220); assay: cell-based or functional assay
[2] = molecular target: human GLP-1 receptor (human) (UniProt P43220)
human GLP-1 receptor [3] = molecular target: T1, human GLP-1 receptor (human, UniProt P43220 24-463)
human GLP-1 receptor [4] = molecular target: T1, human GLP-1 receptor; assay: cell-based or functional assay
human GLP-1 receptor [5] = molecular target: T1, human GLP-1 receptor; assay: cell-based or functional assay; remark: listed apart in the source

Chain of human GLP-1 receptor (human) (P43220 24-463): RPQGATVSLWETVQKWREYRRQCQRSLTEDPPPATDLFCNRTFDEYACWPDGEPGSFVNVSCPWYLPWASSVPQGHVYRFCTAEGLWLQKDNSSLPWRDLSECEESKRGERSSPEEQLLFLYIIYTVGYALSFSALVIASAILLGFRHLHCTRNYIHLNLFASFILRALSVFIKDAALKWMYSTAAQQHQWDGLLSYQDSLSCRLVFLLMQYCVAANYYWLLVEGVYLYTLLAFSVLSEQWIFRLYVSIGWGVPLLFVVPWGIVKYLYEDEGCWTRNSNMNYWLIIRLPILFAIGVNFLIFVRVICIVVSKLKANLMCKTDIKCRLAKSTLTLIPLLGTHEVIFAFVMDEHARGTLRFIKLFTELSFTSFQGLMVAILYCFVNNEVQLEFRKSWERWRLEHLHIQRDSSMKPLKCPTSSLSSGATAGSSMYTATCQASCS

In the case of Exendin-4 (peptide), the EC50 for receptor activation (cAMP) [1] is reported as 100 to 500 pM.

In the case of “Exendin-4 (peptide; other documents disagree on this pair)”, the IC50 [2] is reported as 400 pM.

B1: P1732 (peptide)
peptide: HA[Asp(3,3-Me2)]GTFTSDVSSYLEGQAAKEFIAWLVKGRPSSGAPPPS
modifications: ends and bridges not checked
In the case of B1, the IC50 (human GLP-1 receptor [3]) is reported as 2500 pM, the “EC50 for receptor activation (cAMP)” value (human GLP-1 receptor [4]) is reported as 400 to 1100 pM and the “EC50 (nM), cAMP production in COS-7 cells expressing the human GLP-1 receptor” value (human GLP-1 receptor [5]) is reported as 0.64 nM.
